Test [1] concerns the target T1, Grapevine fanleaf virus strain F13 (purified viral particles) (Grapevine fanleaf virus, strain F13) (UniProt P18474).
T1 sequence (looked up): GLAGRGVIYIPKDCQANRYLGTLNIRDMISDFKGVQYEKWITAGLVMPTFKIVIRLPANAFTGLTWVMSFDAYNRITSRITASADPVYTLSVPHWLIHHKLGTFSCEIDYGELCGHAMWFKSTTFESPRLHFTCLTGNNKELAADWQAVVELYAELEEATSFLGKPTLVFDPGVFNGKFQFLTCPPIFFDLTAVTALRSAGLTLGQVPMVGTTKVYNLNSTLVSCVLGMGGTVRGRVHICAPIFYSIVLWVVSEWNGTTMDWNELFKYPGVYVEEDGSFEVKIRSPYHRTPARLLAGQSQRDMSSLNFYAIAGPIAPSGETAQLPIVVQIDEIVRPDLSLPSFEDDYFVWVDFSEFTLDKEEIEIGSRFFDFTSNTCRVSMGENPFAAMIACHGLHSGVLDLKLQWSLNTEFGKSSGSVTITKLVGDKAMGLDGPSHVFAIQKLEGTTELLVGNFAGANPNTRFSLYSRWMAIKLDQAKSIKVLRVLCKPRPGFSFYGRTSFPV
Nature of the test: dynamic light scattering: GFLV-F13 at 0.1 mg/ml with Nb23:EGFP at 0.9 mg/ml; virus alone 32 nm.

For test [2], the target named is T1, Grapevine fanleaf virus strain F13 (purified viral particles) (Grapevine fanleaf virus, strain F13). Put plainly: dynamic light scattering: GFLV-F13 at 0.1 mg/ml with Nb23 at 0.1 mg/ml; virus alone 32 nm.

B1: Nb23:EGFP fusion protein (Nb23:EGFP:His6, expressed in E. coli) (protein, part only; not given: EGFP and cloning residues, not shown: large carriers)
chain, part: QVQLQESGGGSVQVGGSLRVACAASGDTFSGYLAAWFRQAPGKGREGVAAINSKRHTTSYADSVKGRFTISKDNADNIMYLEMNSLKPEDTAIYYCAAADAIGLAEYWSTPTLSAARYKYWGQGTQVTVSSGGGSGGGHHHHHH
Turning to B1, in test [1], the average hydrodynamic diameter of viral particles in the presence of the binder came to 43.8 nm.

B2: Nb23 (His6-tagged, purified from E. coli) (VHH)
VHH: QVQLQESGGGSVQVGGSLRVACAASGDTFSGYLAAWFRQAPGKGREGVAAINSKRHTTSYADSVKGRFTISKDNADNIMYLEMNSLKPEDTAIYYCAAADAIGLAEYWSTPTLSAARYKYWGQGTQVTVSS
For B2, the average hydrodynamic diameter of viral particles in the presence of the binder in test [2] was 37.8 nm.

Values taken from patent EP2899279A1.
